Legend:
[1] = tested on: NB4; assay: Annexin V-FITC flow cytometry, apoptosis of NB4; format: cell-based; details: NB4, As2O3 0.5 μg·ml^−1, 24 h, Annexin V/PI
Method: (§1) FACS Calibur flow cytometry, U.S. Becton-Dickinson.Coompany. NB4, HL-60. rLZ-8 is prepared with IMDM culture medium containing 2% FCS into the preparation of 0.1 μg·ml^−1, 0.5 μg·ml^−1, 2.5 μg·ml^−1, arsenic trioxide (As2O3) 0.5 μg·ml^−1 AnnexinV-FITC kit: combining buffer solution 4×; Propidium iodide solution (PI), 20 μg·ml−1, 0.2 ml; recombinant human Annexin V/FITC, 0.1 ml.
(§2) Establish NB4 normal control group, positive drug group (As2O3 0.5 μg·ml^−1), protein low-dose group (0.1 μg·ml^−1), medium-dose group (0.5 μg·ml^−1), high-dose group, (2.5 μg·ml^−1); establish HL-60 normal control group, protein low-dose group (0.1 μg·ml^−1), medium-dose group (0.5 μg·ml^−1), high-dose group, (2.5 μg·ml^−1).
(§3) Mix NB4 and HL-60 cell into 24-orifice plate respectively, 1 ml/hole supply rLZ-8 in different concentrates, set 3-orifice multipunches for each group. Put them in 37° C., 5% CO2 incubator for 24 h, collect the cells of each concentrate, washes the cells twice with pre-cooled PBS 4° C., with 250 μl binding buffer solution re-suspending cells and regulates the cell density to 1×10^6/ml, taking out 100 μl to 5 ml streaming tube, and add 5 μl Annexin V/FITC and 10 μl 20 μg·ml^−1 PI solution, after mixing put it in room temperature and lucifuged hatching 15 min, add 400 μl PBS by flow cytometry analysis.

[2] = tested on: HL-60; assay: Annexin V-FITC flow cytometry, apoptosis of HL-60; format: cell-based; details: HL-60, positive drug group, 24 h, Annexin V/PI
Method: as §1, §2, §3

[3] = tested on: Human Promyelocytic Leukemia NB4 Cells; assay: Killing effect of rLZ-8 on NB4 cells (MTT, OD570nm); format: cell-based; details: As2O3 10 μg ml^−1, 48 h
Method: After filtration and degerming, we prepared 8 concentrations using IMDM culture medium which are respectively 0.78 μg·ml^−1, 1.56 μg·ml^−1, 3.125 μg·ml^−1, 6.25 μg·ml^−1, 12.5 μg·ml^−1, 25 μg·ml^−1, 50 μg·ml^−1, 100 μg·ml^−1.
On 96-orifice culture medium plate, the pilot orifice plus NB4 tumor cells 0.1 ml and rLZ-8 0.1 ml, rLZ-8 concentrates from low to high; negative control group plus NB4 tumor cells and culture medium of 0.1 ml respectively; positive drug control group arsenic trioxide As2O3; make six-aperture multipunches for each group. Placing in 37° C., 5% CO2 incubator 48 h, adding MTT15 μl (5 mg ml^−1) prior to the termination of 4 h, after the termination of cell culture by adding 100 μl 0.1 mol L^−1 hydrochloric acid isopropyl alcohol, testing on the enzyme-linked immunosorbent OD570nm values.

[4] = tested on: Human Chronic Myelogenous Leukemia K562 Cells; assay: Lethal effect of rLZ-8 on K562 cells (MTT, OD570nm); format: cell-based; details: As2O3 10 μg ml^−1, 48 h
Method: After sterilization of rLZ-8, we prepared 6 concentrations using IMDM culture medium, which are respectively 3.125 μg·ml^−1, 6.25 μb·ml^−1, 12.5 μg·ml^−, 25 μg·ml^−1, 50 μg·ml^−1, 100 μg·ml^−1.
On 96-orifice culture plate, the pilot aperture plus K562 tumor cells 0.1 ml and rLZ-8 0.1 ml, rLZ-8 concentrations from low to high; negative control group plus K562 tumor cells and culture medium of the 0.1 ml respectively; positive drug control group arsenic trioxide As2O3; make six-aperture multipunches for each group. Placing in 37° C., 5% CO2 incubator 48 h, adding MTT15 μl (5 mg ml^−1) prior to the termination of 4 h, after the termination of cell culture by adding 100 μl 0.1 mol L^−1 hydrochloric acid isopropyl alcohol, testing OD values570nm on the enzyme immunosorbent detector.

[5] = tested on: spleen; assay: Colony forming unit-spleen and spleen index in radiation model of mice; format: in vivo; details: Genlei Scimax 3.2 μg·kg^−1
Method: (§4) rLZ-8 preparation of sterile saline. Divide them into 5 ∞g·kg^−1, 2.5 μg·kg^−1, 1.25 μg·kg^−1, 0.62 μg·kg^−1 dose groups. 0.2 ml/vial.
(§5) Genlei™ Scimax™ [Recombinant human granulocyte colony-stimulating factor injection (rhG-CSF)], production lot: 20060403; 150m/vial is prepared with sterile normal saline into the preparation of 3.2 μg·kg^−1, 0.2 ml/vial.
(§6) The mice were irradiated by 7.5 Gy γ-ray (180 mV, 15 mA) and then divided into seven groups (n=10): (A) negative control; (B) 5 μg·kg−1 dose; (C) 2.5 μg·kg−1 dose; (D) 1.25 μg·kg−1 dose; (E) 0.62 μg·kg−1 dose; (F) positive control (Genlei™ Scimax™); (G) model group. Together with modeling, mice in each group were administered with Genlei™ Scimax™ and rLZ-8 for 9 days, drew blood from tail, tested the number of WBC, weight spleen, calculated index of spleen.

[6] = tested on: WBC; assay: Treatment of radiation leucopenia model of mice, WBC; format: in vivo; design: unit not given here; details: Genlei Scimax 3.2 μg·kg^−1; 7.5 Gy γ-ray
Method: as §4, §5, §6

[7] = tested on: WBC; assay: Prevention of radiation leucopenia model of mice, WBC; format: in vivo; design: unit not given here; details: Genlei Scimax 3.2 μg
Method: rLZ-8 preparation of sterile saline. Divide them into 5 μg·kg^−1, 2.5 μg·kg^−1, 1.25 μg·kg^−1, 0.62 μg·kg^−1 dose groups. 0.2 ml/vial.
Genlei™ Scimax™ [Recombinant human granulocyte colony-stimulating factor injection (rhG-CSF)], production lot: 20060403; 150 μg/vial is prepared with sterile normal saline into the preparation of 3.2 μg·kg^−1, 0.2 ml/vial.
as §6, with “Before modeling 5 days,” for “Together with modeling,”, “5” for “9”, “days, on the 5th day, mice were radiated, for 5 days, and on the 7th day,” for “days,”

[8] = tested on: WBC; assay: Cyclophosphamide low-leucocyte rat model, WBC; format: in vivo, rats; design: unit not given here; details: Genlei Scimax 9.45 μg·kg−1
Method: rLZ-8 preparation of sterile saline. Divide them into 20 μg·kg^−1, 10 μg·kg^−1, 5 μg·kg^−1, 2.5 μg·kg^−1, 1.25 μg·kg^−1, 0.625 μg·kg^−1, 0.31 μg·kg^−1 dose groups.
Genlei™ Scimax™ [Recombinant human granulocyte colony-stimulating factor injection (rhG-CSF)], production lot: 20060403; 75 μg/vial is prepared with sterile normal saline into the preparation of 9.45 μg·ml^−1, 0.1 ml/vial.
Cyclophosphamide (CP), the production lot number 050216; 200 mg/vial is prepared with sterile normal saline into the preparation of 20 mg·ml^−1, 0.1 ml/vial, namely, 49 mg·kg^−1.
Normal control group, protein low-dose group, protein medium-dose group, protein high-dose group, positive control group (Genlei™ Scimax™)
(§7) Excluding the normal control group (given same normal saline), each group of rats were given tail vein injection of cyclophosphamide, 20 mg·ml^−1, 0.1 ml/vial, for 3 consecutive days. On 3rd day, rat tail venous blood sampling, sent to Jilin University First Hospital laboratory, cell analyze the number of WBC. After successful modeling, they were given to the above groups respective dose of rLZ-8 and positive drugs (Genlei™ Scimax™) treatment, the normal control group and CP groups were given same normal saline, on the 3rd, 7th and 14th day of the treatment to draw venous blood from rats tail respectively, sent to Jilin University First Hospital testing the numbers of WBC. Compare WBC changes before and after the treatment for analysis of drug efficacy.

[9] = tested on: WBC; assay: Cyclophosphamide low-leucocyte mice model, WBC; format: in vivo; design: unit not given here; details: Genlei Scimax 3.2 μg·kg−1
Method: rLZ-8 preparation of sterile saline. Divide them into 5 μg·kg^−1, 2.5 μg√kg^−1, 1.25 μg·kg^−1, 0.62 μg·kg^−1 dose groups.
Genlei™ Scimax™ [Recombinant human granulocyte colony-stimulating factor injection (rhG-CSF)], production lot: 20060403; 75 μg/vial is prepared with sterile normal saline into the preparation of 3.2 μg·kg^−1, 0.2 ml/vial.
Cyclophosphamide (CP) for injection (the production lot number 050216; 200 mg/vial) is prepared with sterile normal saline into the preparation of 12.5 mg·kg^−1, 0.2 ml/vial.
Normal control group, several protein dose groups, positive control group (Genlei™ Scimax™).
as §7, with “mice” for “rats”, “[…], 0.2” for “20 mg·ml^−1, 0.1”

Molecule: arsenic trioxide [As2O3, reference compound]
- Apoptosis rate [1]: 23.4%
- Apoptosis rate [2]: 39.7%
- Growth inhibition rate (%) [3]: 72%
- OD570 nm [3]: 0.33 ± 0.01
- Growth inhibition rate (%) [4]: 78.2%
- OD570 nm [4]: 0.22 ± 0.03

B1: Genlei ™ Scimax ™: Recombinant human granulocyte colony-stimulating factor injection (rhG-CSF) (protein, UniProt P09919 31-207, looked up)
Granulocyte …: TPLGPASSLPQSFLLKCLEQVRKIQGDGAALQEKLVSECATYKLCHPEELVLLGHSLGIPWAPLSSCPSQALQLAGCLSQLHSGLFLYQGLLQALEGISPELGPTLDTLQLDVADFATTIWQQMEELGMAPALQPTQGAMPAFASAFQRRAGGVLVASHLQSFLEVSYRVLRHLAQP
- colony forming unit-spleen number [5]: 6.0 ± 0.11
- growth rate [5]: 26%
- index (spleen) [5]: 0.20 ± 0.10
- WBC, 5th day [6]: 0.68 ± 0.35
- WBC, 7th day [6]: 0.58 ± 0.35
- WBC, 9th day [6]: 0.80 ± 0.11
- WBC, 5th day (rLZ-8) ([7]; 5th day of administration before radiation): 21.8 ± 0.35
- WBC, 5th day ([7]; after 7.5 Gy γ-ray): 0.26 ± 0.20
- WBC, 7th day ([7]; after 7.5 Gy γ-ray): 0.22 ± 0.12
- WBC, 3rdday of medication [8]: 1.4 ± 0.11
- WBC, 7thday of medication [8]: 13.1 ± 0.21
- WBC, 14thday of medication [8]: 10.3 ± 0.14
- WBC, 3rdday of medication [9]: 5.5 ± 0.12
- WBC, 7thday of medication [9]: 22.7 ± 0.12
- WBC, 14thday of medication [9]: 13.0 ± 0.19

From patent US20110009597A1, “RECOMBINANT GANODERMA LUCIDIUM IMMUNOMODULATORY PROTEIN (rLZ-8) AND USES THEREOF” (priority 2008, published 2011)
